From patent US20260102474A1 (published 2026)
Where a chain is given by its changes, count along the chain named.

B1: ACE2-M2-FcKO (Fc fusion)
chain: STIEEQAKYFLDYFNVQAEDLFYQSSLASWNYNTNITEENVQNMNNAGDKWSAFLKEQSTYAQRYPLQEIQNLTVKLQLQALQQNGSSVLSEDKSKRLNTILNTMSTIYSTGKVCNPDNPQECLLLEPGLNEIMANSLDYNERLWAWESWRSEVGKQLRPLYEEYVVLKNEMARANHYEDYGDYWRGDYEVNGVDGYDYSRGQLIEDVEHTFEEIKPLYEHLHAYVRAKLMNAYPSYISPIGCLPAHLLGDMWGRFWTNLYSLTVPFGQKPNIDVTDAMVDQAWDAQRIFKEAEKFFVSVGLPNMTQGFWEYSMLTDPGNVQKAVCHPTAWDLGKGDFRILMCTKVTMDDFLTAHREMGRIQYDMAYAAQPFLLRNGANEGFHEAVGEIMSLSAATPKHLKSIGLLSPDFQEDNETEINFLLKQALTIVGTLPFTYMLEKWRWMVFKGEIPKDQWMKKWWEMKREIVGVVEPVPHDETYCDPASLFHVSNDYSFIRYYTRTLYQFQFQEALCQAAKHEGPLHKCDISNSTEAGQKLFNMLRLGKSEPWTLALENVVGAKNMNVRPLLNYFEPLFTWLKDQNKNSFVGWSTDWSPYADQSIKVRISLKSALGDKAYEWNDNEMYLFRSSVAYAMRQYFLKVKNQMILFGEEDVRVANLKPRISFNFFVTAPKNVSDIIPRTEVEKAIRMSRSRINDAFRLNDNSLEFLGIQPTLGPPNQPPVSSGGGGSGGGGSGGGGSEPKSSDKTHTCPPCPAPPVAGPSVFLFPPKPKDTLMISRTPEVTCVVVGVSHEDPEVKFNWYVDGVEVHNAKTKPREEQYNSTYRVVSVLTVLHQDWLNGKEYKCKVSNKQLPSPIEKTISKAKGQPGQPREPQVYTLPPSRDELTKNQVSLTCLVKGFYPSDIAVEWESNGQPENNYKTTPPVLDSDGSFFLYSKLTVDKSRWQQGNVFSCSVMHEALHNHYTQKSLSLSPGK
B2: ACE2-M1-FcKO (Fc fusion)
chain: B1 chain with Y13K, V16H, Q17E, R64M

Assays:
[1] = target: SARS-COV-2 full-length trimeric spike protein, parental (SARS-COV-2, UniProt P0DTC2 14-1213); experiment: competition
[2] = target: SARS-COV-2 spike protein on Caco-2 cells infected with the original version of SARS-COV-2 (SARS-COV-2-mNG) (SARS-COV-2, UniProt P0DTC2 14-1273); experiment: flow

| Binder | IC50 [1] | EC50 [2] |
| --- | --- | --- |
| B1 | 9.4 nM | 0.48 µg/mL |
| B2 | 3.8 nM | 0.29 µg/mL |
